Assay results: PMC7808953 (Redox Biology, 2020)

Molecular target: the molecule itself
Test: native gel or EMSA

B1: hypochlorite-treated α2-macroglobulin (natural protein)
chain: SVSGKPQYMVLVPSLLHTETTEKGCVLLSYLNETVTVSASLESVRGNRSLFTDLEAENDVLHCVAFAVPKSSSNEEVMFLTVQVKGPTQEFKKRTTVMVKNEDSLVFVQTDKSIYKPGQTVKFRVVSMDENFHPLNELIPLVYIQDPKGNRIAQWQSFQLEGGLKQFSFPLSSEPFQGSYKVVVQKKSGGRTEHPFTVEEFVLPKFEVQVTVPKIITILEEEMNVSVCGLYTYGKPVPGHVTVSICRKYSDASDCHGEDSQAFCEKFSGQLNSHGCFYQQVKTKVFQLKRKEYEMKLHTEAQIQEEGTVVELTGRQSSEITRTITKLSFVKVDSHFRQGIPFFGQVRLVDGKGVPIPNKVIFIRGNEANYYSNATTDEHGLVQFSINTTNVMGTSLTVRVNYKDRSPCYGYQWVSEEHEEAHHTAYLVFSPSKSFVHLEPMSHELPCGHTQTVQAHYILNGGTLLGLKKLSFYYLIMAKGGIVRTGTHGLLVKQEDMKGHFSISIPVKSDIAPVARLLIYAVLPTGDVIGDSAKYDVENCLANKVDLSFSPSQSLPASHAHLRVTAAPQSVCALRAVDQSVLLMKPDAELSASSVYNLLPEKDLTGFPGPLNDQDNEDCINRHNVYINGITYTPVSSTNEKDMYSFLEDMGLKAFTNSKIRKPKMCPQLQQYEMHGPEGLRVGFYESDVMGRGHARLVHVEEPHTETVRKYFPETWIWDLVVVNSAGVAEVGVTVPDTITEWKAGAFCLSEDAGLGISSTASLRAFQPFFVELTMPYSVIRGEAFTLKATVLNYLPKCIRVSVQLEASPAFLAVPVEKEQAPHCICANGRQTVSWAVTPKSLGNVNFTVSAEALESQELCGTEVPSVPEHGRKDTVIKPLLVEPEGLEKETTFNSLLCPSGGEVSEELSLKLPPNVVEESARASVSVLGDILGSAMQNTQNLLQMPYGCGEQNMVLFAPNIYVLDYLNETQQLTPEIKSKAIGYLNTGYQRQLNYKHYDGSYSTFGERYGRNQGNTWLTAFVLKTFAQARAYIFIDEAHITQALIWLSQRQKDNGCFRSSGSLLNNAIKGGVEDEVTLSAYITIALLEIPLTVTHPVVRNALFCLESAWKTAQEGDHGSHVYTKALLAYAFALAGNQDKRKEVLKSLNEEAVKKDNSVHWERPQKPKAPVGHFYEPQAPSAEVEMTSYVLLAYLTAQPAPTSEDLTSATNIVKWITKQQNAQGGFSSTQDTVVALHALSKYGAATFTRTGKAAQVTIQSSGTFSSKFQVDNNNRLLLQQVSLPELPGEYSMKVTGEGCVYLQTSLKYNILPEKEEFPFALGVQTLPQTCDEPKAHTSFQISLSVSYTGSRSASNMAIVDVKMVSGFIPLKPTVKMLERSNHVSRTEVSSNHVLIYLDKVSNQTLSLFFTVLQDVPVRDLKPAIVKVYDYYETDEFAIAEYNAPCSKDLGNA
modifications: modified by hypochlorite (NaOCl); residues not given
For B1, the “stoichiometry N” value was 2.
